This is an account of results in patent US20080008707A1, “Denatured collagen peptides and uses thereof” (Cell-Matrix, Inc., priority 2006, published 2008).

Assay [1] has as its system D93. As to the kind of experiment: Peptide array screening ELISA: D93 binding to biotinylated synthetic collagen peptides. Conditions: for binding activity by D93 (primary peptide array): 10 μg/mL D93, 16-mers with N-terminal biotin, 50% proline/hydroxyproline mixture at each proline; for MAB BINDING (OD450nM): D93 at 10 μg/mL, average of duplicate tests, secondary array, proline or hydroxyproline at each proline position. How it is done: The synthesis of short peptide arrays or single peptides was contracted to New England Peptide, Gardner, Mass. A peptide array (primary array) was initially constructed which corresponded to specific locations in the protein sequences that were identified in by N-terminal sequencing reactions as described above. The peptide array consisted of a 96-well microplate template containing individual, overlapping peptides (˜1 to 10 mg/well) corresponding to a contiguous sequence of the human collagen type alpha I chain (between residues G1,064 and T1,669) with an N-terminal biotin and 50% hydroxyproline or proline mixture for each proline residue, with a length of 16 amino acids and overlap of 10 amino acids with the adjacent protein sequence. Peptides were dissolved in 400 μL DMSO to achieve a stock peptide concentration of 2.5 to 25 mg/mL.
The ELISA assay described above was used screen peptides for D93 binding activity. Briefly, 100 μL of streptavidin at 10 μg/mL in PBS was coated onto 96-well microtiter plates from 12 to 18 hours at 2 to 8° C. Plates were blocked with 1% BSA/PBS as above. D93 was diluted to 10 μg/mL in 1% BSA/PBS, and 100 μL per well was added, in duplicate, as described above and incubated for 1 hour at room temperature. The secondary anti-human IgG-HRP, substrate development and plate reader steps were as described above. Peptides which were bound by D93 were further tested for inhibition of D93 binding to human heat-denatured-collagen IV using the ELISA described above. Peptides and D93 antibody were prepared at a 2× concentration in 1% BSA/PBS of the final test concentration and pre-mixed in 1.7 mL microfuge for 15 minutes prior to adding to the microplate wells.
A second peptide array was constructed based on permutations of the protein sequence (collagen IV alpha I chain residues 1337-1352, termed “peptide 40” of the primary array) in the primary array that reacted with D93. The secondary array consisted of individual peptides with either proline or hydroxyproline at each proline residue in the peptide PGAKGLPGPPGPPGPY (SEQ ID NO: 1).
(In general: ELISA stands for enzyme-linked immunosorbent assay.)

In assay [2] the target is human heat-denatured collagen type IV (human). As to the kind of experiment: ELISA, wells coated with human heat-denatured collagen IV, anti-mouse IgM-HRP, read at 450 nm.
human heat-denatured collagen type IV (human), sequence (P08572 other isoform, or with tags, fused parts or gaps): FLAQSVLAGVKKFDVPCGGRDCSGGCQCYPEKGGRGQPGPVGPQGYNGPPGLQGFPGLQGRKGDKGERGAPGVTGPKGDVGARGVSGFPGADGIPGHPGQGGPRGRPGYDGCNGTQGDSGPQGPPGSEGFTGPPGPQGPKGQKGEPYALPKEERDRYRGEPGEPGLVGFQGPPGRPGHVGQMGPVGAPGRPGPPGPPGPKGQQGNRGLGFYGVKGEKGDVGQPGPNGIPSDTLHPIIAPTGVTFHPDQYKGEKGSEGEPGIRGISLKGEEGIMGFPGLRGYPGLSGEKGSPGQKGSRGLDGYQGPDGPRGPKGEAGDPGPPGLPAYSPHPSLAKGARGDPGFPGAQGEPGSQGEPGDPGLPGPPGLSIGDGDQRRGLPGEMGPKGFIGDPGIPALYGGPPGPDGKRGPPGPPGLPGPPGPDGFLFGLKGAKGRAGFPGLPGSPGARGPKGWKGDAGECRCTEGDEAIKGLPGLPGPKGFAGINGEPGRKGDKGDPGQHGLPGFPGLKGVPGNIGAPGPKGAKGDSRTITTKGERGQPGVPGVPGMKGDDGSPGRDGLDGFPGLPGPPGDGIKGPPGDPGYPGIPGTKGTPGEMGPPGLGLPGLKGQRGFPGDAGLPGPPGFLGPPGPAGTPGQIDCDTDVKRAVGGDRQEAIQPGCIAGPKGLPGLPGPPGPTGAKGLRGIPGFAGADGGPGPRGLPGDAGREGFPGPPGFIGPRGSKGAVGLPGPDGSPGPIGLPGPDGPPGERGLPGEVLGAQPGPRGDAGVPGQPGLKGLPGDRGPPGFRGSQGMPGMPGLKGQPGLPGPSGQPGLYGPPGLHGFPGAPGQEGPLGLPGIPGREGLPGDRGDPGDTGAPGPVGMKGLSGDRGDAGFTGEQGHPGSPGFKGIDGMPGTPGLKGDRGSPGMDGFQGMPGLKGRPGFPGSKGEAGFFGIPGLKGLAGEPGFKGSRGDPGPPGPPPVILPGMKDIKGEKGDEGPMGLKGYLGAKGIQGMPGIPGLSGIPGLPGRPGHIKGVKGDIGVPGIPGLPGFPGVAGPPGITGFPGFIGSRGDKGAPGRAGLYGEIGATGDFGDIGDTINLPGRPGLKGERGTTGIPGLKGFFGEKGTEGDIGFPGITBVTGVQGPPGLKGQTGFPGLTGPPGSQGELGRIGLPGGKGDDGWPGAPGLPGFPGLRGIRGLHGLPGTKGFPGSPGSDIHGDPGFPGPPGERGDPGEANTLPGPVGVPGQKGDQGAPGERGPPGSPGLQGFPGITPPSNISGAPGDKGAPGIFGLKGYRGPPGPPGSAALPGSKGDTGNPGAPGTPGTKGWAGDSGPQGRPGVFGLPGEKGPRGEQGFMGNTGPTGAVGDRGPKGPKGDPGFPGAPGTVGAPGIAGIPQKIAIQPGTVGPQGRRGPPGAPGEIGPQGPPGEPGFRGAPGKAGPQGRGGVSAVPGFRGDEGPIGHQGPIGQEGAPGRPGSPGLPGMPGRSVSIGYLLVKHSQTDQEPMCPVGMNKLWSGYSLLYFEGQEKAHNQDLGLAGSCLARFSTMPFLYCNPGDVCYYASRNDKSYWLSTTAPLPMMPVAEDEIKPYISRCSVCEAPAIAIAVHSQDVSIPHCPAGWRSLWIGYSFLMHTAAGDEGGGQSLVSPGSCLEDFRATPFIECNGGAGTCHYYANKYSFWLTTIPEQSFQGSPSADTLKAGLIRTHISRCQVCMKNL
Assay [3] has the same target. As to the kind of experiment: ELISA (data not shown).
In assay [4] the target is denatured collagen V. Nature of the assay: ELISA (data not shown).
Assay [5] addresses denatured collagen III. As to the kind of experiment: ELISA (data not shown).
Assay [6] deals with denatured collagen type-I (human) (UniProt P02452). As to the kind of experiment: ELISA.
UniProt P02452, sequence (P02452 21-1464 V1081A/Q1391K, chain 1 of 2): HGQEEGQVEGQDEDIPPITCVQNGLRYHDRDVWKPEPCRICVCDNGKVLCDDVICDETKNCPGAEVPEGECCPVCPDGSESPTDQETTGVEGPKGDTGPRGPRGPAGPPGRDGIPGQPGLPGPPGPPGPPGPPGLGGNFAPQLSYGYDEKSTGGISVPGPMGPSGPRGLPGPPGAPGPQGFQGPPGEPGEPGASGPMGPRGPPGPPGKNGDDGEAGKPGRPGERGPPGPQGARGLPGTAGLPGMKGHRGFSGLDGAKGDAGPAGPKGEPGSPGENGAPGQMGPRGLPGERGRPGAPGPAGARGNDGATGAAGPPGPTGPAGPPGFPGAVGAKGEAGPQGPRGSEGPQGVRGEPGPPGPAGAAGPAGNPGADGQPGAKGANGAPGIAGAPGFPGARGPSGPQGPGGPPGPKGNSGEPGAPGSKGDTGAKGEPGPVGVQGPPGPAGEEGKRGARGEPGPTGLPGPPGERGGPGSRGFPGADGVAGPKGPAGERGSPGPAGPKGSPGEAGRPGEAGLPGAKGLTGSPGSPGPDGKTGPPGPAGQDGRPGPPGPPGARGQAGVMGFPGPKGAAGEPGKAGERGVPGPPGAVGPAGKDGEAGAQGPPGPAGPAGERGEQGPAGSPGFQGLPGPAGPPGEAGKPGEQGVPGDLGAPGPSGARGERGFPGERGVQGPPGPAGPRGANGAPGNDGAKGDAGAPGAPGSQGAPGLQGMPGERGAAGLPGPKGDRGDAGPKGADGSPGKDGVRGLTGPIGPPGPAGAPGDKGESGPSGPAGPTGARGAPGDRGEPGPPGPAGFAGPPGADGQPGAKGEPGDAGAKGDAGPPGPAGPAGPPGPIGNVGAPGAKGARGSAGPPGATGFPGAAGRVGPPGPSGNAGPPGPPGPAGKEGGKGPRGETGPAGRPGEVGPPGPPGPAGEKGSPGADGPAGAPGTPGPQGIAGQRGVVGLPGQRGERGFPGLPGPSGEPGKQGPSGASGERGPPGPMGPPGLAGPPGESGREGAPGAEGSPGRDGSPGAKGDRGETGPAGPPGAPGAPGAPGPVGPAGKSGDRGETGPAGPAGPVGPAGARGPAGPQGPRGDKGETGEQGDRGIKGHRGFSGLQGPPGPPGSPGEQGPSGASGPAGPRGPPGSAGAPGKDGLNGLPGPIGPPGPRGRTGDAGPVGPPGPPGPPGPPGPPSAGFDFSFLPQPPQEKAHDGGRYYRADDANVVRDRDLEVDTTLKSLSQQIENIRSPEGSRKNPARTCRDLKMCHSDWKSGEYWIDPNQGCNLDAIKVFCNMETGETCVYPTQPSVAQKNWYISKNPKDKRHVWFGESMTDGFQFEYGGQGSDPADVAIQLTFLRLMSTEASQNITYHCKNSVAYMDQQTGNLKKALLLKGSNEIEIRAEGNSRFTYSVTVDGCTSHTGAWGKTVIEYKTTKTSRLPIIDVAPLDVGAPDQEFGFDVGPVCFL
UniProt P02452, sequence (P02452 other isoform, or with tags, fused parts or gaps, chain 2 of 2): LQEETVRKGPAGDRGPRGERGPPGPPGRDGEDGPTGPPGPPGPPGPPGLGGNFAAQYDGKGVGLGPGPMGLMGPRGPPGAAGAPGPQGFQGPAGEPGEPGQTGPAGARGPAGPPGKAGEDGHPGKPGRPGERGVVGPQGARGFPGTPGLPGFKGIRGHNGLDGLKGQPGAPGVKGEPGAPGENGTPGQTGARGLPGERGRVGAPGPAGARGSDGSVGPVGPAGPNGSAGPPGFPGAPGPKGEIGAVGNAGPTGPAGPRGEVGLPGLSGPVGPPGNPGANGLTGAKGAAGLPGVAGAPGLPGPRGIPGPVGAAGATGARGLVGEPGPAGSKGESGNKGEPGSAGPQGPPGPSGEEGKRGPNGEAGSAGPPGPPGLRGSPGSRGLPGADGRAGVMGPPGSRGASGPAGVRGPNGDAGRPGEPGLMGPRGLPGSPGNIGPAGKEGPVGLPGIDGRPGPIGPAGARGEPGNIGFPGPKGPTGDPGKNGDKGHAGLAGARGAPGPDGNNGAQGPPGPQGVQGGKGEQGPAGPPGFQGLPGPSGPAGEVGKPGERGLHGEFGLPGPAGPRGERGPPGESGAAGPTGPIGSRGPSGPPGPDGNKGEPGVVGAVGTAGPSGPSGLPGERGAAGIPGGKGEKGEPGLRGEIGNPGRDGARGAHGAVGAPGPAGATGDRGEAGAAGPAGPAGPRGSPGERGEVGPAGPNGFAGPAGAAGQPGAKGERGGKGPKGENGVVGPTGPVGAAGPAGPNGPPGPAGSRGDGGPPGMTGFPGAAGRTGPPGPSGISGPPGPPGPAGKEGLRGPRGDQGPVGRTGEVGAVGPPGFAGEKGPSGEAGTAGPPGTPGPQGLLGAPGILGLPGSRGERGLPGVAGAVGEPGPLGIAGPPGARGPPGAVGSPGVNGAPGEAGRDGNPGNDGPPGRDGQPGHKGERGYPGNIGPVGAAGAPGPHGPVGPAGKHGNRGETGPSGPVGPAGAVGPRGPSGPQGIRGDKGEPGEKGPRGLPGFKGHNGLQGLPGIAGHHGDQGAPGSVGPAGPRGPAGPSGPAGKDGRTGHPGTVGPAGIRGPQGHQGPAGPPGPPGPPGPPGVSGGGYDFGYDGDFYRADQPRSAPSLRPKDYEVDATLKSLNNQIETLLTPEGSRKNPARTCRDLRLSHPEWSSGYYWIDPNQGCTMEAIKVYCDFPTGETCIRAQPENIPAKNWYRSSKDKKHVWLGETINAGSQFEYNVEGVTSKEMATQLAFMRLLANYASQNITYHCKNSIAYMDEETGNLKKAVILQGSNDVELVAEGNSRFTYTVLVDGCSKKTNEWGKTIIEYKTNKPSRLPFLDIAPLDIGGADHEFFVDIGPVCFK
Assay [7] concerns the target human heat-denatured collagen type IV (human). Nature of the assay: ELISA.
For assay [8], the target named is denatured collagen type-I (human) (UniProt P02452). As to the kind of experiment: cell-based or functional assay.
The target in assay [9] is biotinylated synthetic collagen peptide α1(IV) P1337-Y1352 (human). Nature of the assay: SPR, medium density biotinylated peptide surface on streptavidin, avidity model (second binding step), CLAMP. For orientation: In SPR one partner is held on a chip, and binding of the other changes the refractive index at the surface.
Assay [10] shares this target. Nature of the assay: SPR (Biacore), medium density biotinylated peptide on streptavidin chip, monomeric D93 Fab.
Assay [11] shares this target. Nature of the assay: SPR (Biacore), low density biotinylated peptide on streptavidin chip, monomeric D93 Fab.
In assay [12] the target is human heat-denatured collagen type IV (human). As to the kind of experiment: SPR (Biacore), high density dn-collagen on CM5 chip, monomeric (one Fab region) binding.
The target is the same in assay [13]. Nature of the assay: SPR, medium density denatured collagen IV surface, avidity model (second binding step), CLAMP.
For assay [14] the target is unchanged. Nature of the assay: SPR, low density denatured collagen IV surface, avidity model (second binding step), CLAMP.
Assay [15] has the same target. Nature of the assay: SPR, high density denatured collagen IV surface, avidity model (second binding step), CLAMP.
The target is the same in assay [16]. Nature of the assay: SPR (Biacore), medium density dn-collagen on CM5 chip, monomeric (one Fab region) binding.
In assay [17] the target is biotinylated synthetic collagen peptide α1(IV) P1337-Y1352 (human). Nature of the assay: SPR (Biacore), high density biotinylated peptide on streptavidin chip, monomeric D93 Fab.
For assay [18] the target is unchanged. As to the kind of experiment: SPR, high density biotinylated peptide surface on streptavidin, avidity model, CLAMP.
The target is the same in assay [19]. Nature of the assay: SPR, high density biotinylated peptide surface on streptavidin, avidity model (second binding step), CLAMP.
The target in assay [20] is human heat-denatured collagen type IV (human). As to the kind of experiment: SPR, low density denatured collagen IV surface, avidity model, CLAMP.
The target is the same in assay [21]. As to the kind of experiment: SPR, medium density denatured collagen IV surface, avidity model, CLAMP.
Assay [22] has the same target. As to the kind of experiment: SPR (Biacore), low density dn-collagen on CM5 chip, monomeric (one Fab region) binding.
Assay [23] concerns the target biotinylated synthetic collagen peptide α1(IV) P1337-Y1352 (human). Nature of the assay: SPR, medium density biotinylated peptide surface on streptavidin, avidity model, CLAMP.
The target in assay [24] is dn-collagen or synthetic peptide (sensor chips with a low or medium density). As to the kind of experiment: SPR (Biacore), bivalent antibody binding, avidity model.
Assay [25] concerns the target biotinylated synthetic collagen peptide α1(IV) P1337-Y1352 (human). As to the kind of experiment: SPR, low density biotinylated peptide surface on streptavidin, simple 1:1 interaction model, CLAMP.
Assay [26] concerns the target human heat-denatured collagen type IV (human). As to the kind of experiment: SPR, high density denatured collagen IV surface, avidity model, CLAMP.

Ends that are not written are not given here. Where only a bound is given, the exact number is not on record here.

With “peptide 40: primary array peptide, collagen IV alpha I chain residues 1337-1352, 50% proline/hydroxyproline mixture; b687 equates it with SEQ ID NO: 2 (XGAKGLPGPXGPXGPY; not fully specified; X: randomised place (mixture))”, in assay [1], the “binding activity by D93 (primary peptide array)” value is recorded as “higher activity than the others”.

Regarding 1 (PGAKGLPGPPGPPGPY) [compound 1], the “MAB BINDING (OD450nM)” value in assay [1] is on record as 0.136 OD450nM.

“13: peptide 13 of the primary collagen IV alpha 1 array: biotinylated 16-mer, 50% proline/hydroxyproline at each proline (PGAKGLPGPPGPPGPY; not fully specified; also: biotinylated, position not given here) [compound 13]”: in [1], the “binding activity by D93 (primary peptide array)” value was “higher activity than the others” and the “MAB BINDING (OD450nM)” value is 0.348 OD450nM.

In turn, “HUI77, murine IgM anti-denatured-collagen monoclonal antibody” registered a concentration for a half-maximal effect (EC50 (read off the curve)) in assay [2] of 0.1 µg/mL. Also, the fold tighter binding, denatured over native form in [3] was 8 fold; in assay [4], 10 fold; in [5], 7 fold. For the same substance, in [6], the fold apparent reactivity, denatured over native collagen type-I is above 10 fold. Besides, the fold affinity, denatured over native collagen type-IV in assay [7] was found to be 10 fold. Besides, the inhibition of human endothelial cell adhesion to denatured collagen type-I in assay [8] stood at 40%. Moreover, the inhibition of human endothelial cell migration on denatured collagen-I in [8] is 80%.

Regarding “D93, recombinant humanized IgG1 kappa antibody targeting denatured-collagen”, the ka2 in assay [9] amounted to 5.2e-06 RU s-1; in assay [13], 1.8e-06 RU s-1; in assay [14], 7.1e-06 RU s-1; in assay [15], 4.3e-06 RU s-1; in [19] it was 6.6e-06 RU s-1. Moreover, the kd2 in assay [9] is 0.006 s⁻¹; in assay [13] it was 0.0017 s⁻¹; in assay [14], 0.00099 s⁻¹; in assay [15], 0.0024 s⁻¹; in [19] it was 0.014 s⁻¹. In addition, the Kd in assay [10] came to 1.7 µM; in assay [11] it was 11 µM; in [12], 6.5 µM; in assay [16], 7.8 µM; in assay [17], 1.3 µM; in assay [22], 10 µM. The substance further displayed a Kd in assay [24] of 0.03 to 0.063 µM. The koff in [18] was found to be 0.057 s⁻¹; in assay [20], 0.33 s⁻¹; in assay [21] it was 0.21 s⁻¹; in assay [23] it was 0.1 s⁻¹; in assay [25], 0.52 s⁻¹; in [26] it was 0.038 s⁻¹. The kon was 41900 M⁻¹ s⁻¹ in [18]; 32700 M⁻¹ s⁻¹ in assay [20]; 26800 M⁻¹ s⁻¹ in assay [21]; 57800 M⁻¹ s⁻¹ in assay [23]; 42800 M⁻¹ s⁻¹ in assay [25]; 5800 M⁻¹ s⁻¹ in [26].

As a reminder, the EC50 (read off the curve) is the concentration giving half of the maximal effect. Read a high EC50 (read off the curve) as a less potent agent. As usually defined, the koff is the rate constant with which the complex falls apart. The term kon denotes a measure of how fast the partners come together. A higher kon goes with fast association.
